Measurements: US20220380464A1 (Genmab, published 2022)

What was measured:
[1] = target: T1, CD3ε27-GSKa (human); assay: BLI (Octet), summary table repeating Table 4
T1 construct: also called Mature CD3ε27-GSKa
Procedure: (§1) Experiments were carried out while shaking at 1000 rpm and at 30° C.

[2] = target: T2, human CD3 on human T cells (human, UniProt P07766 23-207); assay: flow cytometry on isolated human T cells, PE anti-human IgG detection
T2 construct: Natural CD3/TCR complex on T cells isolated from human donor buffy coats; The other chains of the complex (CD3γ, CD3δ, CD3ζ, polyclonal TCR) are also present on the cells
Procedure: T cells were Isolated from a buffy coat fraction of anti-coagulated human donor blood samples and resuspended in PBS/0.1% BSA/0.02% azide at 1.8×10E6 cells/mL. 50 μL of T cell suspension and 50 μL of the antibody dilutions were combined in a 96 well plate on ice, Incubated for 30 min at 4° C. and washed twice with PBS/0.1% BSA/0.02% azide. […] The cells were resuspended in 120 μL PBS/0.1% BSA/0.02% azide and PE geometric Mean Fluorescence Intensity was measured. Binding curves were analyzed using non-linear regression (sigmoidal dose-response with variable slope) using GraphPad Prism V5.04 software (GraphPad Software, San Diego, Calif., USA) and apparent affinity (KD) was derived from the concentration at half-maximal binding.

[3] = target: T1, CD3ε27-GSKa; assay: BLI (Octet HTX), UniTE antibody on anti-human Fc sensors, CD3ε27-GSKa in solution, 1:1 fit
Procedure: as §1

[4] = target: T1, CD3ε27-GSKa; assay: BLI (Octet HTX), IgG on anti-human Fc sensors, CD3ε27-GSKa 1000-1.4 nM in solution, 1:1 fit, average
Procedure: as §1
Data was analyzed with ForteBio Data Analysis Software v8.1, using the 1:1 model and a global full fit with 1000 s association time and 100 s dissociation time. […] Data traces with a response <0.05 nm were excluded from analysis.

T2 sequence (P07766 23-207 limits assumed): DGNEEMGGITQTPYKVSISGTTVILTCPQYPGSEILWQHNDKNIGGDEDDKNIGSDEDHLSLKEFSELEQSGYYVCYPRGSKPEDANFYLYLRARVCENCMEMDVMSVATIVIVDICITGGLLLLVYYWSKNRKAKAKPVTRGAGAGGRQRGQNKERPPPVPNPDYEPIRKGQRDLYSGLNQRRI
T1 sequence (chain, as listed by the source limits assumed): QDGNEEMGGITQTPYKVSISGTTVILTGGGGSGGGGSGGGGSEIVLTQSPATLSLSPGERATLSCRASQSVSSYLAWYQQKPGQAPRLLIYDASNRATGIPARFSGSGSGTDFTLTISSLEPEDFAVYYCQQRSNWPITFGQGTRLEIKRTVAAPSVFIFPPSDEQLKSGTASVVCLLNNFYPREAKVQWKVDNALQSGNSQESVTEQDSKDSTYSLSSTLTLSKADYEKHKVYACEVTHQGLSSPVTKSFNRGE

Row | Binder | Kd [1] | Tcell binding average at 5000ng/ml (Geometric MFI) [2] | Ka [3] | Kd [3] | Kd [4] | pKD [4]
1 | UniTE-huCD3-H1L1-LT41K (antibody, V domains shown, also called UniTE-huCD3-H1L1-LT41K (WT); UniTE-huCD3-H1L1-T41K) VH: EVKLVESGGGLVQPGGSLRLSCAASGFTFNTYAMNWVRQAPGKGLEWVARIRSKYNNYATYYADSVKDRFTISRDDSKSSLYLQMNNLKTEDTAMYYCVRHGNFGNSYVSWFAYWGQGTLVTVSS VL: not shown | 34 nM | 13200 Geometric MFI | 3e+07 M⁻¹ | 34 nM |  | 
2 | UniTE-huCD3-H1L1-H101K-LT41K (antibody, V domains shown, Monovalent UniBody-TE format) VH: EVKLVESGGGLVQPGGSLRLSCAASGFTFNTYAMNWVRQAPGKGLEWVARIRSKYNNYATYYADSVKDRFTISRDDSKSSLYLQMNNLKTEDTAMYYCVRKGNFGNSYVSWFAYWGQGTLVTVSS VL: not shown |  | 1320 Geometric MFI |  |  |  | 
3 | UniTE-huCD3-H1L1-S110A-LT41K (antibody, V domains shown, Monovalent UniBody-TE format) VH: EVKLVESGGGLVQPGGSLRLSCAASGFTFNTYAMNWVRQAPGKGLEWVARIRSKYNNYATYYADSVKDRFTISRDDSKSSLYLQMNNLKTEDTAMYYCVRHGNFGNSYVAWFAYWGQGTLVTVSS VL: not shown | 320 nM | 1660 Geometric MFI | 3.1e+06 M⁻¹ | 320 nM |  | 
4 | IgG1-huCD3-S110G-FEAL (antibody, V domains shown) VH: EVKLVESGGGLVQPGGSLRLSCAASGFTFNTYAMNWVRQAPGKGLEWVARIRSKYNNYATYYADSVKDRFTISRDDSKSSLYLQMNNLKTEDTAMYYCVRHGNFGNSYVGWFAYWGQGTLVTVSS VL: not shown |  |  |  |  | 153 nM | 6.8
5 | IgG1-huCD3-N57E-FEAL (antibody, V domains shown) VH: EVKLVESGGGLVQPGGSLRLSCAASGFTFNTYAMNWVRQAPGKGLEWVARIRSKYNEYATYYADSVKDRFTISRDDSKSSLYLQMNNLKTEDTAMYYCVRHGNFGNSYVSWFAYWGQGTLVTVSS VL: not shown |  |  |  |  | 91 nM | 7
6 | IgG1-huCD3-Y114V-FEAL (antibody, V domains shown) VH: EVKLVESGGGLVQPGGSLRLSCAASGFTFNTYAMNWVRQAPGKGLEWVARIRSKYNNYATYYADSVKDRFTISRDDSKSSLYLQMNNLKTEDTAMYYCVRHGNFGNSYVSWFAVWGQGTLVTVSS VL: not shown |  |  |  |  | 29 nM | 7.5
7 | IgG1-huCD3-S110A-FEAL (antibody, V domains shown) VH: EVKLVESGGGLVQPGGSLRLSCAASGFTFNTYAMNWVRQAPGKGLEWVARIRSKYNNYATYYADSVKDRFTISRDDSKSSLYLQMNNLKTEDTAMYYCVRHGNFGNSYVAWFAYWGQGTLVTVSS VL: not shown |  |  |  |  | 72 nM | 7.1
8 | UniTE-huCD3-H1L1-H101G-LT41K (antibody, V domains shown, Monovalent UniBody-TE format) VH: EVKLVESGGGLVQPGGSLRLSCAASGFTFNTYAMNWVRQAPGKGLEWVARIRSKYNNYATYYADSVKDRFTISRDDSKSSLYLQMNNLKTEDTAMYYCVRGGNFGNSYVSWFAYWGQGTLVTVSS VL: not shown | 970 nM | 492 Geometric MFI | 1e+06 M⁻¹ | 970 nM |  | 
9 | IgG1-huCD3-T31P-FEAL (antibody, V domains shown) VH: EVKLVESGGGLVQPGGSLRLSCAASGFTFNPYAMNWVRQAPGKGLEWVARIRSKYNNYATYYADSVKDRFTISRDDSKSSLYLQMNNLKTEDTAMYYCVRHGNFGNSYVSWFAYWGQGTLVTVSS VL: not shown |  |  |  |  | 42 nM | 7.4
10 | UniTE-huCD3-H1L1-H101N-LT41K (antibody, V domains shown, Monovalent UniBody-TE format) VH: EVKLVESGGGLVQPGGSLRLSCAASGFTFNTYAMNWVRQAPGKGLEWVARIRSKYNNYATYYADSVKDRFTISRDDSKSSLYLQMNNLKTEDTAMYYCVRNGNFGNSYVSWFAYWGQGTLVTVSS VL: not shown | 200 nM | 848 Geometric MFI | 5.1e+06 M⁻¹ | 200 nM |  | 
11 | UniTE-huCD3-H1L1-Y114R-LT41K (antibody, V domains shown, Monovalent UniBody-TE format) VH: EVKLVESGGGLVQPGGSLRLSCAASGFTFNTYAMNWVRQAPGKGLEWVARIRSKYNNYATYYADSVKDRFTISRDDSKSSLYLQMNNLKTEDTAMYYCVRHGNFGNSYVSWFARWGQGTLVTVSS VL: not shown |  | 6200 Geometric MFI |  |  |  | 
12 | UniTE-huCD3-H1L1-H101I-LT41K (antibody, V domains shown, Monovalent UniBody-TE format) VH: EVKLVESGGGLVQPGGSLRLSCAASGFTFNTYAMNWVRQAPGKGLEWVARIRSKYNNYATYYADSVKDRFTISRDDSKSSLYLQMNNLKTEDTAMYYCVRIGNFGNSYVSWFAYWGQGTLVTVSS VL: not shown | 220 nM |  | 4.6e+06 M⁻¹ | 220 nM |  | 
13 | IgG1-huCD3-Y114R-FEAL (antibody, V domains shown) VH: EVKLVESGGGLVQPGGSLRLSCAASGFTFNTYAMNWVRQAPGKGLEWVARIRSKYNNYATYYADSVKDRFTISRDDSKSSLYLQMNNLKTEDTAMYYCVRHGNFGNSYVSWFARWGQGTLVTVSS VL: not shown |  |  |  |  | 46 nM | 7.3
14 | IgG1-huCD3-Y32A-FEAL (antibody, V domains shown) VH: EVKLVESGGGLVQPGGSLRLSCAASGFTFNTAAMNWVRQAPGKGLEWVARIRSKYNNYATYYADSVKDRFTISRDDSKSSLYLQMNNLKTEDTAMYYCVRHGNFGNSYVSWFAYWGQGTLVTVSS VL: not shown |  |  |  |  | 105 nM | 7
15 | UniTE-huCD3-H1L1-T31P-LT41K (antibody, V domains shown, Monovalent UniBody-TE format) VH: EVKLVESGGGLVQPGGSLRLSCAASGFTFNPYAMNWVRQAPGKGLEWVARIRSKYNNYATYYADSVKDRFTISRDDSKSSLYLQMNNLKTEDTAMYYCVRHGNFGNSYVSWFAYWGQGTLVTVSS VL: not shown | 49 nM | 4290 Geometric MFI | 2e+07 M⁻¹ | 49 nM |  | 
16 | IgG1-huCD3-H101K-FEAL (antibody, V domains shown) VH: EVKLVESGGGLVQPGGSLRLSCAASGFTFNTYAMNWVRQAPGKGLEWVARIRSKYNNYATYYADSVKDRFTISRDDSKSSLYLQMNNLKTEDTAMYYCVRKGNFGNSYVSWFAYWGQGTLVTVSS VL: not shown |  |  |  |  | 120 nM | 6.9
17 | IgG1-huCD3-H101N-FEAL (antibody, V domains shown) VH: EVKLVESGGGLVQPGGSLRLSCAASGFTFNTYAMNWVRQAPGKGLEWVARIRSKYNNYATYYADSVKDRFTISRDDSKSSLYLQMNNLKTEDTAMYYCVRNGNFGNSYVSWFAYWGQGTLVTVSS VL: not shown |  |  |  |  | 45 nM | 7.3
18 | UniTE-huCD3-H1L1-N57E-LT41K (antibody, V domains shown, Monovalent UniBody-TE format) VH: EVKLVESGGGLVQPGGSLRLSCAASGFTFNTYAMNWVRQAPGKGLEWVARIRSKYNEYATYYADSVKDRFTISRDDSKSSLYLQMNNLKTEDTAMYYCVRHGNFGNSYVSWFAYWGQGTLVTVSS VL: not shown | 24 nM | 8490 Geometric MFI | 4.1e+07 M⁻¹ | 24 nM |  | 
19 | IgG1-huCD3-H101L-FEAL (antibody, V domains shown) VH: EVKLVESGGGLVQPGGSLRLSCAASGFTFNTYAMNWVRQAPGKGLEWVARIRSKYNNYATYYADSVKDRFTISRDDSKSSLYLQMNNLKTEDTAMYYCVRLGNFGNSYVSWFAYWGQGTLVTVSS VL: not shown |  |  |  |  | 107 nM | 7
20 | UniTE-huCD3-H1L1-S110G-LT41K (antibody, V domains shown, Monovalent UniBody-TE format) VH: EVKLVESGGGLVQPGGSLRLSCAASGFTFNTYAMNWVRQAPGKGLEWVARIRSKYNNYATYYADSVKDRFTISRDDSKSSLYLQMNNLKTEDTAMYYCVRHGNFGNSYVGWFAYWGQGTLVTVSS VL: not shown | 61 nM | 949 Geometric MFI | 1.6e+07 M⁻¹ | 61 nM |  | 
21 | IgG1-huCD3-Y114M-FEAL (antibody, V domains shown) VH: EVKLVESGGGLVQPGGSLRLSCAASGFTFNTYAMNWVRQAPGKGLEWVARIRSKYNNYATYYADSVKDRFTISRDDSKSSLYLQMNNLKTEDTAMYYCVRHGNFGNSYVSWFAMWGQGTLVTVSS VL: not shown |  |  |  |  | 42 nM | 7.4
22 | IgG1-huCD3-T31M-FEAL (antibody, V domains shown) VH: EVKLVESGGGLVQPGGSLRLSCAASGFTFNMYAMNWVRQAPGKGLEWVARIRSKYNNYATYYADSVKDRFTISRDDSKSSLYLQMNNLKTEDTAMYYCVRHGNFGNSYVSWFAYWGQGTLVTVSS VL: not shown |  |  |  |  | 99 nM | 7
23 | UniTE-huCD3-H1L1-T31M-LT41K (antibody, V domains shown, Monovalent UniBody-TE format) VH: EVKLVESGGGLVQPGGSLRLSCAASGFTFNMYAMNWVRQAPGKGLEWVARIRSKYNNYATYYADSVKDRFTISRDDSKSSLYLQMNNLKTEDTAMYYCVRHGNFGNSYVSWFAYWGQGTLVTVSS VL: not shown | 200 nM | 1920 Geometric MFI | 5.1e+06 M⁻¹ | 200 nM |  | 
24 | UniTE-huCD3-H1L1-T31A-LT41K (antibody, V domains shown, Monovalent UniBody-TE format) VH: EVKLVESGGGLVQPGGSLRLSCAASGFTFNAYAMNWVRQAPGKGLEWVARIRSKYNNYATYYADSVKDRFTISRDDSKSSLYLQMNNLKTEDTAMYYCVRHGNFGNSYVSWFAYWGQGTLVTVSS VL: not shown |  | 10200 Geometric MFI |  |  |  | 
25 | IgG1-huCD3-G105P-FEAL (antibody, V domains shown) VH: EVKLVESGGGLVQPGGSLRLSCAASGFTFNTYAMNWVRQAPGKGLEWVARIRSKYNNYATYYADSVKDRFTISRDDSKSSLYLQMNNLKTEDTAMYYCVRHGNFPNSYVSWFAYWGQGTLVTVSS VL: not shown |  |  |  |  | 5 nM | 8.3
26 | UniTE-huCD3-H1L1-Y32A-LT41K (antibody, V domains shown, Monovalent UniBody-TE format) VH: EVKLVESGGGLVQPGGSLRLSCAASGFTFNTAAMNWVRQAPGKGLEWVARIRSKYNNYATYYADSVKDRFTISRDDSKSSLYLQMNNLKTEDTAMYYCVRHGNFGNSYVSWFAYWGQGTLVTVSS VL: not shown |  | 719 Geometric MFI |  |  |  | 
27 | UniTE-huCD3-H1L1-G105P-LT41K (antibody, V domains shown, Monovalent UniBody-TE format) VH: EVKLVESGGGLVQPGGSLRLSCAASGFTFNTYAMNWVRQAPGKGLEWVARIRSKYNNYATYYADSVKDRFTISRDDSKSSLYLQMNNLKTEDTAMYYCVRHGNFPNSYVSWFAYWGQGTLVTVSS VL: not shown | 35 nM | 10500 Geometric MFI | 2.8e+07 M⁻¹ | 35 nM |  | 
